± gives the uncertainty stated by the source.
Test: protein stability index of a GFP-peptide fusion (yeast GPS) (PSI 1-4); higher = more stable; sorted into four equal gates, so the index is relative within each strain
Method in brief: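 Each library plasmid carries Cherry plus GFP with a tiled 17-residue yeast protein peptide fused downstream, and the pooled library was carried in yeast. Mid-log cultures in leucine-free medium were sorted into four equal gates by GFP/Cherry ratio. Reads from Illumina sequencing of PCR-amplified plasmids from each gate were assigned to strains by barcodes. Per peptide, the protein stability index was computed as the summed products of gate read frequency and gate number.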

| Sequence | protein stability index (doa10∆) | protein stability index (pdr5∆) | protein stability index (san1∆) | protein stability index (ubr1∆) |
| --- | --- | --- | --- | --- |
| VLAGDTRNITDYSINSR [PRE7] | 2.93 ± 0.09 | 3.29 ± 0.075 | 3.22 ± 0.061 | 3.24 ± 0.058 |
| IGVLNNSSESDEEESND [RPN13] | 3.52 ± 0.2 | 2.4 ± 0.25 | – | 3.37 ± 0.095 |
| DIPTIADEHFWADNYER [BRN1] | 3.14 ± 0.2 | 3.18 ± 0.1 | 3.34 ± 0.069 | 3.22 ± 0.04 |
| KKRIRLPSEERIQKIIS [YIL149C/MLP2] | 2.66 ± 0.074 | 2.49 ± 0.062 | 2.71 ± 0.081 | 2.72 ± 0.04 |
| SNSNVTNPSSIFGGAGG [YOR098C/NUP1] | 2.89 ± 0.049 | 2.77 ± 0.05 | 2.29 ± 0.052 | 2.87 ± 0.045 |
| MDNKTPVTLAKVIKVLG [RPS28A] | 1.16 ± 0.12 | 1.77 ± 0.22 | 1.16 ± 0.27 | 2.55 ± 0.27 |
| PGDIVRAQVLSLGDGTN [CSL4] | 3.62 ± 0.24 | 3.26 ± 0.12 | 3.14 ± 0.12 | 3.29 ± 0.12 |
| YLTGGQQPTASDNIASL [SMD1] | 3 ± 0.21 | 2.57 ± 0.18 | 3.04 ± 0.099 | 2.61 ± 0.18 |
| GRKYTTLGKLSTSVGWK [RPL16B] | 2.79 ± 0.1 | 1.94 ± 0.1 | 2.77 ± 0.11 | 2.64 ± 0.067 |
| DFKPPYIYSHVNKVPQN [SWP82] | 2.16 ± 0.12 | 2.14 ± 0.11 | 2.79 ± 0.14 | 2.62 ± 0.054 |
| RILKLGTQLATLKNRGL [YGR119C/NUP57] | 2.29 ± 0.078 | 2.57 ± 0.068 | 2.65 ± 0.081 | 2.84 ± 0.046 |
| SVFYTILRDYGPQEAAN [RPO31] | 3.42 ± 0.11 | 3.25 ± 0.094 | 3.27 ± 0.071 | 2.88 ± 0.069 |
| KNEKLILEESLNAIILK [SMC3] | 2.74 ± 0.075 | 2.64 ± 0.087 | 2.18 ± 0.17 | 2.65 ± 0.064 |
| KIAGIEGHLAEIRAKEY [SRB2] | 3.36 ± 0.12 | 3.41 ± 0.097 | 3.4 ± 0.071 | 3.31 ± 0.058 |
| SCQIAQPYEDRPFEGLF [RRP45] | 3.33 ± 0.24 | 3.26 ± 0.095 | 3.15 ± 0.086 | – |
| ARDLATMTYEEVAKRLV [FAS1] | 2.94 ± 0.11 | 3.3 ± 0.082 | 3.12 ± 0.13 | 3.02 ± 0.073 |
| LENKADPLVSLMMVEKV [RPT6] | 2.12 ± 0.095 | 2 ± 0.069 | 2.35 ± 0.067 | 2.2 ± 0.099 |
| FLWPFKLSNPSGGWGVP [RPL7A] | 3.16 ± 0.077 | 2.85 ± 0.075 | 3.16 ± 0.1 | 3.36 ± 0.14 |
| YARADTHFLLNIYDQLR [RRP6] | 2.54 ± 0.045 | 2.34 ± 0.042 | 2.44 ± 0.05 | 2.58 ± 0.027 |
| QRRGPLVVYAEDNGIVK [RPL4A] | 3.43 ± 0.11 | 3.14 ± 0.095 | 2.46 ± 0.093 | 2.68 ± 0.11 |
| FNEENGEDSTKPLGPCD [POP1] | 3.34 ± 0.14 | – | – | – |
| KELELERKEREDFQKRQ [SWI1] | 3.25 ± 0.076 | 3.22 ± 0.078 | 3.32 ± 0.068 | 3.31 ± 0.045 |
| HIIQAKADAQREKALNE [RPL19A] | 3.29 ± 0.19 | 3.38 ± 0.094 | 3.33 ± 0.086 | – |
| HVLSRLSYISALGMMTR [RET1] | 1.35 ± 0.073 | 1.32 ± 0.053 | 1.24 ± 0.13 | 1.33 ± 0.073 |
| EEARRKHVSGKILGFVY [RPS22A] | 2.82 ± 0.2 | 2.67 ± 0.18 | 2.97 ± 0.16 | 2.9 ± 0.097 |
| DDIFIPQNMLFEGCYYT [RPC25] | 2.51 ± 0.17 | 2.89 ± 0.23 | 2.43 ± 0.12 | 2.76 ± 0.12 |
| RNKRAVQLPILKIIYTG [YJL039C/NUP192] | 1.6 ± 0.056 | 1.87 ± 0.048 | 1.97 ± 0.069 | 2.02 ± 0.067 |

| Sequence | protein stability index (doa10∆) | protein stability index (pdr5∆) | protein stability index (san1∆) | protein stability index (ubr1∆) |
| --- | --- | --- | --- | --- |
| GKIDEAADILCELQVET [RPN5] | 3.06 ± 0.12 | 3.25 ± 0.15 | 3.1 ± 0.061 | 3.46 ± 0.095 |
| PLPSHALTVQEVLNRVA [YDL116W/NUP84] | 2.29 ± 0.039 | 2.37 ± 0.042 | 2.37 ± 0.053 | 2.33 ± 0.027 |
| DFDLFKEVLPDLQNLNL [YJL039C/NUP192] | 3.44 ± 0.095 | 3.17 ± 0.11 | 3.19 ± 0.07 | 3.4 ± 0.16 |
| SIGASIADLASLEQLLG [YCS4] | 2.84 ± 0.099 | 2.94 ± 0.064 | 2.9 ± 0.076 | 2.92 ± 0.033 |
| TTESSDLKEGLQDLSRY [GRR1] | 3.24 ± 0.12 | 3.33 ± 0.11 | 3.33 ± 0.052 | 3.55 ± 0.045 |
| TFAQEKLNTFENDLLQE [SMC3] | 3.33 ± 0.18 | 3.26 ± 0.12 | 3.12 ± 0.13 | 2.81 ± 0.13 |
| KNRSNRKRFHSQSKGTV [YOR098C/NUP1] | 3.21 ± 0.18 | 3.11 ± 0.18 | 2.89 ± 0.16 | 3.26 ± 0.19 |
| TKTPGPGGQAALRALAR [RPS14A] | 2.64 ± 0.042 | 2.27 ± 0.031 | 2.39 ± 0.042 | 2.3 ± 0.029 |
| KTAMAELALLNHWRQNK [BRR2] | 1.39 ± 0.082 | 1.79 ± 0.12 | 1.26 ± 0.17 | 1.88 ± 0.062 |
| IQLIKILNSHFDALRSL [YJL041W/NSP1] | 2.54 ± 0.047 | 2.4 ± 0.039 | 2.95 ± 0.033 | 2.58 ± 0.035 |
| MTVAHLIECLLSKVAAL [RPB2] | 1.97 ± 0.084 | 2.01 ± 0.074 | 1.84 ± 0.1 | 1.54 ± 0.054 |
| SPVQDWNLLRSLYIFFT [YML103C/NUP188] | 2.38 ± 0.079 | 1.71 ± 0.053 | 2.25 ± 0.069 | 1.95 ± 0.042 |
| ERLVEFSNVNELQEKNV [YIL149C/MLP2] | 3.31 ± 0.23 | 3.36 ± 0.24 | – | 3.1 ± 0.2 |
| PNIHQNLLPKKSAKATK [HTA1] | 2.53 ± 0.093 | 2.66 ± 0.082 | 2.69 ± 0.1 | 2.49 ± 0.061 |
| LDEIFSGCDSTKPSLRK [ECM29] | 2.57 ± 0.078 | 2.55 ± 0.06 | 2.65 ± 0.065 | 2.65 ± 0.038 |
| YNALFQQNIKFRRDFLL [YJL039C/NUP192] | 2.38 ± 0.096 | 2.02 ± 0.063 | 2.4 ± 0.068 | 2.3 ± 0.055 |
| LYGTAIGARSQGAKTYL [PRE5] | 2.88 ± 0.13 | 3.21 ± 0.079 | 3.04 ± 0.078 | 3.13 ± 0.079 |
| HSPFPFNRTKGKMVRAQ [PRP8] | 1.84 ± 0.2 | 1.16 ± 0.14 | – | 1.05 ± 0.094 |
| LNLPLQFSLPNGDNSTT [SNF12] | 2.48 ± 0.047 | 1.99 ± 0.043 | 2.283 ± 0.013 | 2.08 ± 0.038 |
| SIQPIESNIKMTLEDNN [SSN2] | 3.12 ± 0.077 | 3.08 ± 0.075 | 2.81 ± 0.053 | 2.97 ± 0.043 |
| FIRSTNSWFDVTWRTFT [FAS1] | 1.37 ± 0.12 | 1.14 ± 0.13 | – | 1.34 ± 0.15 |
| RKYSFNYSSLPSPYKTT [YAR002W/NUP60] | 2.56 ± 0.054 | 2.8 ± 0.05 | 2.71 ± 0.058 | 2.71 ± 0.045 |
| KVDGKVRTDTTYPAGFM [RPS4A] | 3.41 ± 0.13 | 3.18 ± 0.13 | 2.97 ± 0.073 | 3.15 ± 0.11 |
| LLDILVKGETRIQNRVK [PRP8] | 3.38 ± 0.14 | 2.98 ± 0.097 | 3.49 ± 0.096 | 2.94 ± 0.068 |
| ATNTFGSNQQSSTGGGL [YGR119C/NUP57] | 2.89 ± 0.12 | 3.23 ± 0.076 | 3.15 ± 0.13 | 2.9 ± 0.075 |
| SKQDVEALIEFIYDTEK [FAS2] | 3.23 ± 0.1 | 3.17 ± 0.083 | 3.04 ± 0.13 | 3.08 ± 0.073 |
